Reference: the supplement of paper PMC9170038

Test system: K4 kissing-loop RNA reporter
Assay: apparent KD of K4 kissing-loop reporter; higher = weaker reporter binding
Conditions: Eterna round: R107
Method: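 RNA-MaP round R107: designed RNA switches with theophylline, tryptophan, arginine or FMN aptamers are transcribed on-chip within common flanks. They are titrated with a labelled K4 kissing-loop RNA reporter in RNA-MaP buffer (100 mM Tris pH 7.5, 80 mM KCl, 4 mM MgCl2), without ligand or with the indicated ligand. Median apparent KD per design.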

[1] = input ligand: theophylline 20 uM
[2] = input ligand: tryptophan 2.4 mM
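Further: bound reporter read as fluorescence of individual clusters on recovered sequencing chips by microscopy, with normalized cluster intensities fitted with a binding model.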

| Sequence | apparent KD of K4 kissing-loop reporter (input ligand: FMN 200 uM) [nM] | apparent KD of K4 kissing-loop reporter (input ligand: arginine 13.2 mM) [nM] | apparent KD of K4 kissing-loop reporter (input ligand: none) [nM] | apparent KD of K4 kissing-loop reporter [1] [nM] | apparent KD of K4 kissing-loop reporter [2] [nM] |
| --- | --- | --- | --- | --- | --- |
| CCAUCGCUAUUCGAUACCAGCUAAAUAUAAUAUAACCAGUGAUGUUGGUAUAUAAAUAUAAGCCCUUGGCAGCGAAUAGUGAUGG [Theophylline B K4 30] | 139 | 107 | 113 | 103 | 109 |
| UGAUACCAGACUGAUACCAGCCAGUGAUGUUGGCUAAAACCAAAAGCUGGCAAAGCCAGCGGCCCUUGGCAGCAGUCUGGUAUCU [TheoBX 1 #SwitchBubble #StaticStem] | 816 | 694 | 806 | 1010 | 667 |
| AGGGUAAGGCGUUAACAUGACACCUGGGAAGGAGCGCGGUACACCGCAGGUAGGUCGCCCAGUGAUGUUGGGCGUAAGUAUGAGU [KL-XArg-A22] | 137 | 179 | 185 | 180 | 137 |
| UAUAUACAUUUAUUAAUUAAAGGUUCAGAAGGAGCGUGAAUUAACACAGGUAGGUCGCUGAGCGAGUGAUGUUCGCUAUAUGGAA [JR_ExcArginiA_Sub006] | 54.1 | 69.3 | 57 | 81 | 50.4 |
| AAUGUAUUCCACAUGAGUGAUGUUCAUGUGCGAGGACCGGUACGGCCGCCACUCGCAGUUGUGAUCAGUUCUGAAUACAUUAAUG [KL-XTryp-A3] | 229 | 225 | 219 | 235 | 331 |
| CCAUCCGAGUCGGCCGCCACUUUGAGUGAUGUUUGGAGUCUGAGUCAACAUAAAUACUUAGUUUAAAGGACCGGGACUUCGGAUG [theeternabot_exclusion_KL_Trp_B_7] | 773 | 722 | 1020 | 1060 | 363 |
| AGAGGUCCCAGUGAUGUUGGUGCGUUUGGUCGAGGACCGGUACGGCCGCCACUCGUUCAUAGUAAGCCCUCUUUAGUGUUUCUAA [theeternabot_sameState_KL_Trp_A_9] | 544 | 336 | 428 | 551 | 186 |
| AAAAUAAUCCAGUGAUGUUGGUCUCCAGAUACCAGCGACGAAAGUCGCCCUUGGCAGCUGUGGACGUACAAAAUAAGUACGUCCU | 366 | 416 | 464 | 345 | 314 |
| AUGUCUGAUAGCAGUGAUGUUGCUUCGGAUACCAGACGAGAUCAUGUCCCUUGGCAGCUGACACGGCACGUGCUAGGUUAGAUGA [whbob_Ex_Theo_A_th72] | 121 | 98.3 | 115 | 116 | 113 |
| GUGCGGCUAGUGAUGUUGGUUGUGUGGGAAGGAGCGCAGAUUCAUGCAGGUAGGUCGCCCACACCUCUGAAAGGAGGCUAAUUCA [KL-SSArg-A16] | 453 | 300 | 315 | 368 | 331 |
| GAGGCCAGACGGAGUGAUGUUUCGUAUGAUACCAGCAGCGAAAGCUGCCCUUGGCAGCAUGCCACGGCCUCGGCGGGAAACCGCC | 372 | 319 | 397 | 446 | 384 |
| AACCGAGGUAAUCCACAAAGAUAACAUGAUACCAGAUAUAUAAAUAUCCCUUGGCAGCAUGGCAUGAGUGAUGUUCAUGUGUCUU [KL-SSTheo-A10] | 441 | 325 | 460 | 269 | 356 |
| UAAGAGGACCACUGCGAGAGUCCUCGAAUACGAGGACCGGUACGGCCGCCACUCGAUAAUUUGCAGUGAUGUUGCAAGUAAGAAU [BrourdMod 6 - Jieux - Same State Tryptophan A] | 64.5 | 114 | 82.4 | 104 | 48.6 |
| UGUGAGCUGUCGACAAAAGUCGACUAAAACGAGGAUAUGACGAAAGUCAGAAGGCGUCAAUAAUGGAGUGAUGUUCCUGCUCACU [FmnA 9 #SwitchBubble #K4Late] | 256 | 404 | 552 | 453 | 401 |
| AAGGUAUCACCAACAUUGCAAGAAGGUGAUACCAGCAUCGAAAGAUGCCCUUGGCAGCACCAACUUGCAGUGAUGUUGCAAGUAA [(T)'-(H)'-(T1)-(T2)-(H1)-(H2)_Design8] | 274 | 210 | 267 | 213 | 226 |
| AUCAUUGAGUGAUGUUCAAUGGGUUUUCCCAAGGAUAUUCGGAGCUGAAGAAGGUGGCCCUCGAUAUCAGUAUCAACCUGAAAGC [theeternabot_exclusion_KL_FMN_A_11] | 360 | 340 | 381 | 388 | 243 |
